Data reported in paper PMC7660905.

What was measured:
[1] = target: D25 IgG (human monoclonal antibody to site Ø of PreF) (human); assay: SPR; Biacore T200, single cycle kinetics, IgG captured ([…]; 25 °C, HBS-EP; 1:1 binding model
[2] = target: D25 (human monoclonal antibody to site Ø of PreF); assay: SPR; settings: read off a plot; for Kd: parent: est. 54 pM; for ratio to parent: parent: est. 1.0
[3] = target: AM14; assay: SPR; settings: read off a plot; for Kd: parent: est. 100 pM; for ratio to parent: parent: est. 1.0
[4] = target: D25 IgG (human monoclonal antibody to site Ø of PreF) (human); assay: SPR; Biacore T200, single cycle kinetics, IgG captured (100-200 RU) by human Fc binder on a CM5 chip; PreF injected at 0-20 nM, 120 s association, 600 s dissociation; 25 °C, HBS-EP; 1:1 binding model

**Q.** How did the Kd [1] turn out when “DS-Cav1 (prefusion-stabilized RSV fusion glycoprotein F), trimeric PreF (from UniProt P03420) (complex)” was run?
**A.** 0.0534 nM

**Q.** “DS-Cav1 (stabilized prefusion RSV glycoprotein F) (from UniProt P03420) D200N” was tested. Which Kd [2] did it give?
**A.** 0.022 nM

**Q.** And the ratio to parent [2]?
**A.** 0.4

**Q.** And the Kd [3]?
**A.** 0.12 nM

**Q.** What about the ratio to parent [3] of the same substance?
**A.** 1.2

**Q.** With “DS-Cav1 (stabilized prefusion RSV glycoprotein F) (from UniProt P03420) D200N; N276S” as the substance, how does the Kd [2] read?
**A.** 0.057 nM

**Q.** And the ratio to parent [2]?
**A.** 1

**Q.** And the Kd [3]?
**A.** 0.094 nM

**Q.** And the ratio to parent [3]?
**A.** 0.95

**Q.** For “DS-Cav1 (stabilized prefusion RSV glycoprotein F) (from UniProt P03420) K65A”, which Kd [2] is on record?
**A.** 0.042 nM

**Q.** And the ratio to parent [2]?
**A.** 0.75

**Q.** What about the Kd [3] of the same substance?
**A.** 0.088 nM

**Q.** With “DS-Cav1 (stabilized prefusion RSV glycoprotein F) (from UniProt P03420) N63A” as the substance, how does the Kd [2] read?
**A.** 0.025 nM

**Q.** And the ratio to parent [2]?
**A.** 0.45

**Q.** What about the Kd [3] of the same substance?
**A.** 0.094 nM

**Q.** What about the ratio to parent [3] of the same substance?
**A.** 0.95

**Q.** What does the source list for “DS-Cav1 (stabilized prefusion RSV glycoprotein F) (from UniProt P03420) N63A; K65A”?
**A.** Kd [2]: 0.016 nM; ratio to parent [2]: 0.3; Kd [3]: 0.083 nM

**Q.** Which results are given for “DS-Cav1 (stabilized prefusion RSV glycoprotein F) (from UniProt P03420) N276S”?
**A.** Kd [2]: 0.021 nM; ratio to parent [2]: 0.4; Kd [3]: 0.078 nM; ratio to parent [3]: 0.75

**Q.** Which Kd [4] does the source give for monomeric form of PreF here?
**A.** 0.0977 nM

**Q.** And the koff [4]?
**A.** 3.75e-05 s⁻¹

**Q.** And the kon [4]?
**A.** 384000 M⁻¹ s⁻¹
